Results: US20040171105A1 (published 2004)

B1: Smac (purified recombinant) (other, UniProt Q9NR28 56-239, looked up)
chain: AVPIAQKSEPHSLSSEALMRRAVSLVTDSTSTFLSQTTYALIEAITEYTKAVYTLTSLYRQYTSLLGKMNSEEEDEVWQVIIGARAEMTSKHQEYLKLETTWMTAVGLSEMAAEAAYQTGADQASITARNHIQLVKLQVEEVHQLSRKAETKLAEAQIEELRQKTQEEGEERAESEQEAYLRED
notes: The construct is not described; also called Smac/DIABLO
B2: OmiΔ8 (Omi without the AVPS tetrapeptide, C-terminal hexa-His tagged) (enzyme)
chain: PPPASPRSQYNFIADVVEKTAPAVVYIEILDRHPFLGREVPISNGSGFVVAADGLIVTNAHVVADRRRVRVRLLSGDTYEAVVTAVDPVADIATLRIQTKEPLPTLPLGRSADVRQGEFVVAMGSPFALQNTITSGIVSSAQRPARDLGLPQTNVEYIQTDAAIDFGNSGGPLVNLDGEVIGVNTMKVTAGISFAIPSDRLREFLHRGEKKNSSSGISGSQRRYIGVMMLTLSPSILAELQLREPSFPDVQHGVLIHKVILGSPAHRAGLRPGDVILAIGEQMVQNAEDVYEAVRTQSQLAVQIRRGRETLTLYVTPEVTEHHHHHH
notes: The name Δ8 may mean that 8 residues were deleted in the tested construct; also called Omi?8; OmiΔAVPS

How the values were obtained:
[1] = molecular target: T1, GST fusion form of full-length human cIAP1 (human, UniProt Q13490 1-618); assay: cell-based or functional assay
[2] = molecular target: T2, Omi WT (wild-type mature Omi/HtrA2, C-terminal hexa-His tagged, recombinant from E. coli) (Homo sapiens (humans), UniProt O43464 134-458); assay: immunoprecipitation assay (data not shown)
T2 construct: Any N-terminal Met from Nde I cloning is not discussed for the bacterial protein; also called wild-type Omi; PRSS25
T2 sequence: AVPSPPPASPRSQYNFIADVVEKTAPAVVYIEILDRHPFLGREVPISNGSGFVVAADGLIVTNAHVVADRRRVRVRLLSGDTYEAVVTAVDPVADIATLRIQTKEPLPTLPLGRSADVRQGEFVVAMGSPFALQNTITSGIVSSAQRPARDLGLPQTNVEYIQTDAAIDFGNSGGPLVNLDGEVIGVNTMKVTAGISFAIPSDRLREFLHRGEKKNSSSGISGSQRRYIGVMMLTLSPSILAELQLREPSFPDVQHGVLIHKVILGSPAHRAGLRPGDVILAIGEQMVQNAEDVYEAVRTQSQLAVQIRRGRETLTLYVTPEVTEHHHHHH

[3] = molecular target: T1, GST fusion form of full-length human …; assay: GST pulldown on Glutathione Sepharose beads, Western blot (anti-GST, anti-Penta-His)
Procedure: To examine whether the differential in catalytic efficiency between Omi WT and OmiΔ8 was due to different binding affinities to IAPs, a GST-based pulldown assay was used to monitor the IAP binding affinities of Omi WT and OmiΔ8. Full-length cIAP1 (50 nM) was incubated with 100 nM of Omi WT and Omi mutants for 20 minutes at 4° C. in 50 μl of PBST. The samples were then incubated with 20 μl of Glutathione Sepharose beads (Amersham Biosciences, Piscataway, N.J.) for 30 minutes at 4° C. The beads were precipitated by centrifugation and washed briefly with 1.4 ml×3 of PBST. The proteins bound to the beads and left in the supernatant were separately mixed with SDS sample loading buffer and resolved by SDS-PAGE, then transferred to a nitrocellulose filter. The upper part of the filter was probed with an antibody against GST and the lower part with an antibody against Penta-His.

T1 sequence (Q13490 whole entry, the tested form may be a part): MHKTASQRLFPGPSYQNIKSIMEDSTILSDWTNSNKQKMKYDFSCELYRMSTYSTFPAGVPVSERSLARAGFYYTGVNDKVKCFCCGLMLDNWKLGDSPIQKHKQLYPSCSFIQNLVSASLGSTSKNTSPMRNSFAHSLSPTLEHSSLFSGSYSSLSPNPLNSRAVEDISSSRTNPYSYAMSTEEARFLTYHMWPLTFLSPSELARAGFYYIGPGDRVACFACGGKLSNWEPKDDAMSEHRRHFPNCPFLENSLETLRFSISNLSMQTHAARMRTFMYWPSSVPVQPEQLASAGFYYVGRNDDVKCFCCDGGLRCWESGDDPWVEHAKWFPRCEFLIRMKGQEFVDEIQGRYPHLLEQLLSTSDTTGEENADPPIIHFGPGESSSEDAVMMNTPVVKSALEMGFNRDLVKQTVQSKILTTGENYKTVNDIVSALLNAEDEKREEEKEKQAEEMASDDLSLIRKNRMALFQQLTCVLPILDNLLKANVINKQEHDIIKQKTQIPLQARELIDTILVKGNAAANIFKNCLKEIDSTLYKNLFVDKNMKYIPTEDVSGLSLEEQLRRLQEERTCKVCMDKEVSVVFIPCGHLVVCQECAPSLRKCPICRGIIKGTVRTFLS

Row | Binder | relief of cIAP1 inhibition of caspase activity in HeLa extracts [1] | binding result [2] | binding result [3]
1 | B1 | 200 nM | no binding | –
2 | B2 | – | – | no binding (tested: 100 nM Omi mutant with 50 nM cIAP1)
